From patent US20190248900A1 (Y BIOLOGICS, published 2019)

T1: ITGA6-Fc
T1 construct: Fc fusion
T1 sequence (P23229 whole entry, species assumed, looked up): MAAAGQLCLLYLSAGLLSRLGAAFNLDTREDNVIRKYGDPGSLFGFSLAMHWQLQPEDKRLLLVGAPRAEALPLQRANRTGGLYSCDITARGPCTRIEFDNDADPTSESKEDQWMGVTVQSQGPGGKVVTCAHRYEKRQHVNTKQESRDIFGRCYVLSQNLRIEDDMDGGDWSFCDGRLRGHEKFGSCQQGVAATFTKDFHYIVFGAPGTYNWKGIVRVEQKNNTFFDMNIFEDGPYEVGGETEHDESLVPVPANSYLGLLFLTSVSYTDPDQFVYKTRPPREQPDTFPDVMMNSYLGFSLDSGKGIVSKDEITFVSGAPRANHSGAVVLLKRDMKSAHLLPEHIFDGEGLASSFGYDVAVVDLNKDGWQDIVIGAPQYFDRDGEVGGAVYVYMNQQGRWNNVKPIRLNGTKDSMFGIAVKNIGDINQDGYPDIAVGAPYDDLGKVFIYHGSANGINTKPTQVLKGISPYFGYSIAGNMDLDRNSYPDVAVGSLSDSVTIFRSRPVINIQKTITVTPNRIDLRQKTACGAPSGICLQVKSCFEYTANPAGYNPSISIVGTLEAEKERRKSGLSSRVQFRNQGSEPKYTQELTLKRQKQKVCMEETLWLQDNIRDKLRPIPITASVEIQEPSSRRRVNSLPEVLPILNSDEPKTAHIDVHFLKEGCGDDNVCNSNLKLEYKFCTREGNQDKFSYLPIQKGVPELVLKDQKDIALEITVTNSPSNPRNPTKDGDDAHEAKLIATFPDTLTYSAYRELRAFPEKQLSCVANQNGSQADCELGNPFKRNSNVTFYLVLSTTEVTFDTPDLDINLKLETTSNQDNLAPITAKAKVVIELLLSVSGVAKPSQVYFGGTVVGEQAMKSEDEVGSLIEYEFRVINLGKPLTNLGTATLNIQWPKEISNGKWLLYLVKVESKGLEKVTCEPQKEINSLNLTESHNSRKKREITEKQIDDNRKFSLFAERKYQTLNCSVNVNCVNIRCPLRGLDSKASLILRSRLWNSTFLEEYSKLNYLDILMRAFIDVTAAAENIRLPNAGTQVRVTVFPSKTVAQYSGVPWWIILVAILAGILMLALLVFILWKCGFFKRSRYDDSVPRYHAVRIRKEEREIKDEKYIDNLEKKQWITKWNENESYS

B1: PD1-45F1 (antibody, V domains shown)
VH: QVQLVQSGAEVKKPGASVKLSCKASGYTFNSYYVHWVRQAPGQGLEWMGIINPSDGSATYAQKFQGRVTMTSDTSTSSVYMELSSLRSEDTAVYYCARDGNYYDSRGYYYDTFDMWGQGTLITVSS
VL: SYELTQDPAVSVALGQTVRITCQGDSLRTYYASWYQQKPGQAPILVIYGKNNRPSGIPDRFSGSSSGNTASLTITAAQAEDEADYYCNSRDSSGKSLVFGGGTKLTVL
notes: scFv-phage in the screening ELISA; later whole IgG
B2: PD1-45F4 (antibody, V domains shown)
VH: QMQLVESGGGLVQPGRSLRLSCAASGFTFDDYAMHWVRQAPGQGLEWVSGISWNSNNIKYADSVKGRFTISRDNSKNSLYLQMNSLRAEDTAVYYCARGALTPLDVWGQGTPVTVSS
VL: SYELTQAPSLSVSPGQTANIICSGDNLRTKYVSWYQQKPGQSPLLVIYQDTRRPSGIPARFSGSNSGNTATLTISGTQTRDESTYYCMTWDVDTTSMIFGGGTKLTVL
notes: as for B1
B3: PD1-48A9 (antibody, V domains shown)
VH: QMQLVQSGAEVKKPGSSVKVSCKASGDTFTRYIINWVRQAPGQGLEWMGRVIPTLGLTTYAQNFQDTVTIIADKSTNTAYMELKNLRSEDTAVYYCARGYGSGAFDIWGQGTMITVSS
VL: DIVMTQTPLSLPVTPGEPASISCRSSQSLLDSHDGNTYLDWYLQKPGQSPQLLIYTLSHRASGVPDRFSGSGSGTDFTLKISRVEAEDVGLYYCMQRIDFPYTFGQGTKVEIK
notes: scFv-phage in the screening ELISA; whole IgG in the other assays
B4: PD1-49B9 (antibody, V domains shown)
VH: QMQLVESGGGLVQPGRSLRLSCAASGFTFEDYAMHWVRQPPGKGLEWVSSISWNSHNIAYADSVKGRFTISRDNSKNSLYLQMNSLRAEDTAVYYCSTSGLGVHAWGQGTMVTVSS
VL: QSALTQPPSASGSPGQSVTISCTGTSSDVGGYNYVSWYQQHPGKAPKLMIYEVSKRPSGVPDRFSGSKSGNTASLTVSGLQPEDEADYYCSSFARNSNYVFGTGTKVTVL
notes: as for B1

What follows are binders tested against T2, M9 (assay: scFv-phage ELISA).
T2 construct: also called PD1 mutant M9

In order of rising OD490:
1. B2  3.3
2. B1  3.8
3. B3  3.9
4. B4  3.9

What follows are binders tested against T3, antigen PD1 (coated, construct not stated) (UniProt Q15116 25-170, limits assumed) (assay: scFv-phage ELISA).
T3 construct: also called PD1 antigen; PDCD1
T3 sequence (Q15116 25-170 limits assumed): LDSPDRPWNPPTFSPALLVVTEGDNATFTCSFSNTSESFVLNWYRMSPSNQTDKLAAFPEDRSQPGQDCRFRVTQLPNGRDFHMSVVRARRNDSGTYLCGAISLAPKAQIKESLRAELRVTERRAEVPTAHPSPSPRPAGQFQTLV

In order of rising OD490:
1. B3  2.1
2. B2  3.8
3. B4  3.9
4. B1  4

The binders below were run against T4, M5-1 (assay: scFv-phage ELISA).
T4 construct: also called PD1 mutant M5-1

In order of falling OD490:
1. B1  3.9
2. B4  3.9
3. B3  0.6
4. B2  0.1

The binders below were run against T5, M1-2 (assay: scFv-phage ELISA).
T5 construct: also called PD1 mutant M1-2

In order of falling OD490:
1. B1  3.9
2. B3  3.9
3. B4  3.9
4. B2  3.6

Each binder was assayed against T6, M13 (assay: scFv-phage ELISA).
T6 construct: also called PD1 mutant M13

In order of rising OD490:
1. B1  2.2
2. B2  3.5
3. B4  3.9
4. B3  4

These binders were tested against T7, M8 (assay: scFv-phage ELISA).
T7 construct: also called PD1 mutant M8

In order of falling OD490:
1. B4  4
2. B1  3.9
3. B2  3.6
4. B3  1.7

These binders were tested against T8, M7-1 (assay: scFv-phage ELISA).
T8 construct: also called PD1 mutant M7-1

In order of falling OD490:
1. B1  3.9
2. B4  3.9
3. B2  3.5
4. B3  0.4

The binders below were run against T1, ITGA6-Fc (assay: scFv-phage ELISA).

In order of rising OD490:
1. B1  0.1
2. B2  0.1
3. B3  0.3
4. B4  0.3

These binders were tested against T9, M5 (assay: scFv-phage ELISA).
T9 construct: also called PD1 mutant M5

In order of falling OD490:
1. B4  3.9
2. B1  3.8
3. B3  1.3
4. B2  0.1

These binders were tested against T10, M5-2 (assay: scFv-phage ELISA).
T10 construct: also called PD1 mutant M5-2

In order of rising OD490:
1. B2  3.1
2. B1  3.9
3. B3  3.9
4. B4  4

Each binder was assayed against T11, M2-2 (assay: scFv-phage ELISA).
T11 construct: also called PD1 mutant M2-2

In order of falling OD490:
1. B1  4
2. B3  3.9
3. B4  3.9
4. B2  2.5

What follows are binders tested against T12, M1 (assay: scFv-phage ELISA).
T12 construct: also called PD1 mutant M1

In order of falling OD490:
1. B1  3.9
2. B4  3.9
3. B3  3.7
4. B2  2.6

These binders were tested against T13, M11 (assay: scFv-phage ELISA).
T13 construct: also called PD1 mutant M11

In order of rising OD490:
1. B2  0.3
2. B3  0.3
3. B4  1.4
4. B1  3.8

Each binder was assayed against T14, M2 (assay: scFv-phage ELISA).
T14 construct: also called PD1 mutant M2

In order of rising OD490:
1. B3  0.3
2. B2  2.9
3. B1  3.8
4. B4  3.9

These binders were tested against T15, M1-1 (assay: scFv-phage ELISA).
T15 construct: also called PD1 mutant M1-1

In order of rising OD490:
1. B2  2.5
2. B3  3.8
3. B4  3.8
4. B1  3.9

The binders below were run against T16, M12 (assay: scFv-phage ELISA).
T16 construct: also called PD1 mutant M12

In order of falling OD490:
1. B3  3.9
2. B4  3.9
3. B2  3.7
4. B1  0.4

These binders were tested against T17, M7-2 (assay: scFv-phage ELISA).
T17 construct: also called PD1 mutant M7-2

In order of falling OD490:
1. B1  3.9
2. B4  3.9
3. B2  3.4
4. B3  0.4

Each binder was assayed against T18, M2-1 (assay: scFv-phage ELISA).
T18 construct: also called PD1 mutant M2-1

In order of rising OD490:
1. B2  3
2. B3  3.8
3. B4  3.8
4. B1  3.9

The binders below were run against T19, M14 (assay: scFv-phage ELISA).
T19 construct: also called PD1 mutant M14

In order of rising OD490:
1. B2  1.8
2. B1  3.8
3. B4  3.9
4. B3  4

The binders below were run against T20, M7 (assay: scFv-phage ELISA).
T20 construct: also called PD1 mutant M7

In order of falling OD490:
1. B4  3.9
2. B1  3.8
3. B2  3.5
4. B3  0.3

These binders were tested against T21, M4 (assay: scFv-phage ELISA).
T21 construct: also called PD1 mutant M4

In order of falling OD490:
1. B1  3.9
2. B3  3.9
3. B4  3.8
4. B2  2.7

Each binder was assayed against T22, M3 (assay: scFv-phage ELISA).
T22 construct: also called PD1 mutant M3

In order of rising OD490:
1. B3  2
2. B2  3.7
3. B1  3.8
4. B4  3.9

The binders below were run against T23, M6 (assay: scFv-phage ELISA).
T23 construct: also called PD1 mutant M6

In order of rising OD490:
1. B2  3.7
2. B3  3.9
3. B4  3.9
4. B1  4

What follows are binders tested against T24, M10 (assay: scFv-phage ELISA).
T24 construct: also called PD1 mutant M10

In order of falling OD490:
1. B1  3.9
2. B4  3.9
3. B3  3.8
4. B2  3.3

The binders below were run against human PD-1 (NM_005018.2) over-expressed on cells (human, UniProt Q15116 25-288) (assay: cell-based or functional assay).
Chain of human PD-1 (NM_005018.2) over-expressed on cells (Q15116 25-288): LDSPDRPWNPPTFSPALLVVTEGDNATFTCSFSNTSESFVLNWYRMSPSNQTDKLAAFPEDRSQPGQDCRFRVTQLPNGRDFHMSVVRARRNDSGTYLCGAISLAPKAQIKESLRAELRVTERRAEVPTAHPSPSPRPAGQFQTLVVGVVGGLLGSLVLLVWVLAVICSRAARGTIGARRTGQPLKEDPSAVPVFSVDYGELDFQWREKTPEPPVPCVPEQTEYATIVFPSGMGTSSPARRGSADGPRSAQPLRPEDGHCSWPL

In the case of B3, the “EC50 [nM], PD1/PD-L1 blockade bioassay” value is reported as 8.64 nM.
